The text below walks through data of US20220409512A1, “ORAL CARE COMPOSITIONS FOR GUM HEALTH” (The Procter & Gamble Company, priority 2020, published 2022).

The subject of data set [1] is Primary Human Gingival Fibroblasts. Briefly: In-Vitro Human Gingival Fibroblasts Soluble Collagen Assay. The format is cell-based. The following applies: 72 hours. The protocol:
Stage 1: Culturing Primary Human Gingival Fibroblasts (“HGF”): Primary Human Gingival Fibroblasts (“HGF”) were collected from tooth extraction patients and washed with 5 mL of PBS (phosphate buffered saline). The tissues were chopped into small pieces and placed into 15 mL centrifuge tube. The samples were digested with equal amounts of 1 mL 8% dispase and 1 mL 6% collagenase for 1 hr at 37° C., during which time the samples need to be shaken every 15 minutes. Once the digestion process was complete, the tube was centrifuged at 1100 r.p.m. for 6 minutes at room temperature. After centrifugation, a pellet of cells was formed in the bottom of the tube separating them from the supernatant solution. […] The petri dish with cells were placed in the incubator at 37° C. with 5% CO2 for about 10 days. The petri dish was checked for changes in medium color every two days. Fresh culture medium was replaced if changes in medium color occurred.
It was occasionally necessary to tap the petri dish to remove any sticky cells from the petri dish surface. At least 1 mL of fresh MEM culture medium was added to inactivate the trypsin and the cells are collected into a 15 mL centrifuge tube. The tube was then centrifuged at 1100 r.p.m. for 6 minutes at room temperature. […] Petri dishes were each placed with 1 mL cell suspension and 9 mL fresh MEM culture medium in the incubator at 37° C. with 5% CO2 for about 3-5 days until 80-90% cell monolayer coverage on the petri dishes was observed. […] 1 mL cell suspension and 1 mL fresh MEM culture medium were respectively added into each well of a 6-well plate. The cells were further washed with 2 mL PBS to remove any suspended cells until no suspended cells are visible. 2 mL culture medium, or 2 mL culture medium containing 1% Comparative Compositions or 2 mL culture medium containing 1% Inventive Compositions were added to the wells. Cells were maintained in the incubator at 37° C. with 5% CO2 for 72 hours.
After treatment, cells were washed two times with chilled PBS and homogenized with 6M urea. The cell homogenates were centrifuged at 15,000 r.p.m. for 15 min. 100 μL of the supernatant was mixed with 1 mL of Sircol Dye Reagent for 30 minutes. During this time period, a collagen-dye complex formed and precipitated out from the soluble unbound dye. The tubes were transferred to a microcentrifuge and spun at 12,000 r.p.m. for 10 minutes. The tubes were carefully inverted and drained. 750 μL ice-cold Acid-Salt Wash Reagent was gently added to the collagen-dye pellet to remove unbound dye from the surface of the pellet and the inside surface of the microcentrifuge tube. The tube was then centrifuged at 12,000 r.p.m. for 10 minutes. […]

Data set [2] has as its system COL1A1. Description: Compound Screening on Skin Dermis, collagen gene expression (microarray). The format is in vivo, human. The following applies: dorsal forearm twice daily, four weeks, retinol at 0.2%, Pal-KTTKS at 100 ppm, vs vehicle, p-value in brackets. From the text: (§1) To screen compounds, 30 to 40 female subjects with Fitzpatrick skin types I-III, aged 60-70. At Baseline, each subject was assigned to test each treatment. The products were applied to the dorsal forearm twice daily. Topical treatment with a minimally efficacious moisturizer was used as the vehicle for each test compound and as the negative control.
(§2) After four weeks of treatment, one 4-mm punch biopsy was taken from each treated site. The dermis was separated and snap-frozen in liquid nitrogen and stored at −80° C. until assayed. The frozen tissue was then processed for gene expression analysis. To determine gene expression levels, RNA was extracted, labeled with biotin, hybridized and analyzed using Affymetrix GeneTitan® U219 microarray plates according to the manufacturer's instructions.
(§3) For genomics analysis, microarray sample quality was assessed using principal components analysis and MA-plots. Treatment to negative control comparisons for the microarray data were assessed using ANOVA models fitted separately for each probe set. ANOVA model hypothesis tests were evaluated using the Empirical Bayes method available in the limma R package. A p-value cutoff of 0.05 or less was consider statistically significant.

Data set [3] concerns COL1A2. Described as above. The data set is classed as in vivo, human. The settings on record: dorsal forearm twice daily, four weeks, retinol at 0.2%, Pal-KTTKS at 100 ppm, vs vehicle, p-value in brackets.
Text: as §1, §2, §3

For the substance TGF-B, the “Collagen Productivity (Collagen/Cell)” value is 5.17 Collagen/Cell in data set [1] (Table 5, 1% composition in culture medium, TGF-B 5 ppm); 4.86 Collagen/Cell in data set [1] (Table 6, 1:100 dilution, TGF-B 5 ppm); 4.86 Collagen/Cell in data set [1] (Table 7, 1:100 dilution, TGF-B 5 ppm); 5.17 Collagen/Cell in data set [1] (Table 9, 1:100 dilution, TGF-b 5 ppm).
For “palmitoyl-lys-thr-thr-lys-ser [Pal-KTTKS]”, the “COL1A1 LFC (Log base 2 of the average Fold Change)” value in data set [2] is recorded as −0.15 (0.44). In addition, in data set [3], the “COL1A2 LFC (Log base 2 of the average Fold Change)” value was −0.048 (0.91).
